Consider two molecules from paper doi:10.1101/2021.08.19.456998 (2021).

Test [1] concerns the target T1, biotin-SPAK (uncleaved human SPAK CCT domain, residues 441-545, biotinylated on the AviTag) (human, biotin on the lysine of the AviTag (…)). The test is described as follows: waveRAPID.
For test [2], the target named is T2, biotin-OSR (uncleaved human OSR1 CCT domain, residues 423-527, biotinylated on the AviTag) (human, biotin on the lysine of the AviTag (…)). In words: waveRAPID.
In test [3] the target is T1, biotin-SPAK (uncleaved human SPAK CCT …). The test is described as follows: multicycle kinetics.
The target in test [4] is T2, biotin-OSR (uncleaved human OSR1 CCT …). In words: multicycle kinetics.
In test [5] the target is T3, cleaved OSR1 (human OSR1 CCT domain, residues 423-527, tags removed with TEV protease) (human). In words: waveRAPID, 1:1 model.
Test [6] concerns the target T3, cleaved OSR1 (human OSR1 CCT domain, …). The test is described as follows: multicycle kinetics, 1:1 model.
The target of test [7] is T4, cleaved SPAK (human SPAK CCT domain, residues 441-545, tags removed with TEV protease) (human). In words: waveRAPID, heterogeneous ligand model, site 1.
Test [8] deals with T4, cleaved SPAK (human SPAK CCT domain, …). In words: waveRAPID, heterogeneous ligand model, second site.
Test [9] shares this target. The test is described as follows: waveRAPID, heterogeneous ligand model, second site. This is another data set of the same source.

Where no end group is shown, it is not given here. The star is where a group is joined. Biotin = O=C1N[C@H]2[C@H](CS[C@H]2CCCCC(=O)*)N1

T3 sequence (chain, as listed by the source): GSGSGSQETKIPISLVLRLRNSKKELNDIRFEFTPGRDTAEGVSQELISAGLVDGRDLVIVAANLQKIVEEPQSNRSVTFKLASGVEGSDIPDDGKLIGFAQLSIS
T2 sequence (chain, as listed by the source): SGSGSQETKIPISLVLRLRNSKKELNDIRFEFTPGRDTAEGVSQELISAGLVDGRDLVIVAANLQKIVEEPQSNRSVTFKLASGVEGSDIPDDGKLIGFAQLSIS

As for SEEGKPQLVGRFQVTSSK [18-mer RFQV peptide derived from WNK4 (SEEGKPQLVGRFQVTSSK), unbiotinylated], the koff (in general, the first-order rate constant of dissociation) in test [1] came to 0.614 s⁻¹; in [2], 0.56 s⁻¹; in test [3], 0.327 s⁻¹; in test [4] it was 0.68 s⁻¹.

In the case of {Biotin-C6}-SEEGKPQLVGRFQVTSSK [Biotin-C6-SEEGKPQLVGRFQVTSSK (N-terminally biotinylated 18-mer RFQV peptide derived from WNK4)], the koff turned out to be 0.662 s⁻¹ in test [5], 1.13 s⁻¹ in test [6], 0.584 s⁻¹ in test [7] and 6.98e-05 s⁻¹ in test [8]. Further, in [9], binding was characterised by a dissociation constant (Kd) of 4.25 nM.
